From FireProtDB (doi:10.1016/j.jmb.2006.01.055)
“And” between values parts separate entries of the source, which are not always exact repeats. Equal values may be shown once.

Settings: Equus caballus, pH 5, 15 °C, Abs, CD, Fluorescence, Sodium acetate 0.1 M, reversible: Yes
[1] = GdnHCl, transition: 3, structure 1AKK

Chain of Cytochrome c H34N, P00004 (P00004 whole entry H34N): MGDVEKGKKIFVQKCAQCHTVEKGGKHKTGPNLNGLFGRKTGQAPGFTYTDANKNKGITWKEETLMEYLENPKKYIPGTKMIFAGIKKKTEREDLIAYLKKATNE
Chain of Cytochrome c wild type, P00004 (P00004 whole entry): as the sequence (P00004 whole entry H34N) above, with N34H counted along it

Row | Substance | denaturant m value (GdnHCl, structure 1AKK) | unfolding free energy (GdnHCl, structure 1AKK) | denaturant m value [1] | denaturant midpoint (higher = more stable) [1] | unfolding free energy [1] | denaturant m value (Urea, structure 1AKK) | unfolding free energy (Urea, structure 1AKK) | denaturant midpoint (higher = more stable) (Urea, transition: 3, structure 1AKK) | denaturant m value (GdnHCl) | unfolding free energy (GdnHCl) | denaturant m value (GdnHCl, transition: 3) | denaturant midpoint (higher = more stable) (GdnHCl, transition: 3)
1 | Cytochrome c H34N, P00004 | 4.8 kcal/mol/M | 10.8 kcal/mol | 1.7 kcal/mol/M and 3.08 kcal/mol/M | 2.07 M and 2.34 M | 3.5 kcal/mol and 7.3 kcal/mol | 2.43 kcal/mol/M | 10.5 kcal/mol | 4 M and 4.81 M | – | – | – | –
2 | Cytochrome c wild type, P00004 | – | – | – | – | – | – | – | – | 4.39 kcal/mol/M | 9.8 kcal/mol | 1.34 kcal/mol/M and 3.05 kcal/mol/M | 1.5 M and 2.55 M
